In the supplement of paper PMC11865577:

These sequences were tested on TO-3-N3 (biotin conjugate) (assay: pull-down binding Z-score (relative to library population); higher = stronger binding). Conditions: RNA library: Library-2.
How it was run: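 A heat-folded, dye-end-labelled (Cy5 or Cy3) RNA library (1 μg, phosphate/NaCl/KCl buffer) was exposed for 60 min at 25 °C to streptavidin beads holding 100 pmol of biotin-conjugated small molecule. RNA retained on the beads was eluted in hot SDS and hybridised to a DNA barcode microarray for 20 h at 55.5 °C. Binding scores were Z-scores against the library mean and standard deviation, calculated after subtracting beads alone and taking trimmed means of replicate probes.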

Sequence | pull-down binding Z-score
CUUGGAAAACUUCAAG | -0.101
CUUUACCAACCACCACAAACCUCUAUCACCUCAGCUGUUUUGCAGAGUGGUUUUAGAAAAAUGGCAUUCCCAUCUGGUAAAG | -0.0485
CUUUAGUAAUUACCUAAAGAGACGUGUAGUCUUUAAUGGUGUUUCCUUUAG | -0.924
CUUUAUUAGAAG [DMSMaPseq_invitro_SARS-CoV-2_Motif_195] | -0.165
CUUUGAUAAAGCUGGUCAAAAGACUUAUGAAAG | -0.814
CUUUGUAUUGCAUAGACGGUGCUUUACUUACAAAGUCCUCAGAAUACAAAG | -0.811
CUUUUAUGUCUAUGCUAAUGGAGGUAAAGG [SHAPE_invivo_SARS-CoV-2_Motif_154] | -0.524
CUUUUGAAGAAG [SHAPE_invivo_SARS-CoV-2_Motif_195] | -0.686
GAAAAGAACAAUCAAGGGUACACACCACUGGUUGUUACUCACAAUUUUGACUUCACUUUUAGUUUUAGUCCAGAGUACUCAAUGGUCUUUGUUCUUUUU | -0.824
GAAAAUGACUCUAAAGAGGGUUUUUUC [SHAPE_invitro_SARS-CoV-2_Motif_382] | -0.0158
GAAAUACUUGUCACAUACAAUUGUUGUGAUGAUGAUUAUUUC | -1.15
GAAAUUUGACACCUUCAAUGGGGAAUGUCCAAAUUUU [SHAPE_invitro_SARS-CoV-2_Motif_22] | -0.726
GAACCUUGCUCUUCUGGAACAUACGAGGGCAAUUC | 0.401
GAACUCUACUAAUGUCACUAUUGCAACCUACUGUACUGGUUCUAUACCUUGUAGUGUUUGUCUUAGUGGUUUAGAUUC [DMSMaPseq_invitro_SARS-CoV-2_Motif_135] | 0.03
GAAGAGGGAGCAAUUGUUGGCGAAAUUUCACCAUUGCCUUCUCUUC [IAV_invivo_NS1_NEP_8_Motif_10+IAV_invivo_NS1_NEP_8_Motif_10] | -0.045
GAAGGCUAUUUGAACUCUACUAAUGUCACUAUUGCAACCUACUGUACUGGUUCUAUACCUUGUAGUGUUUGUCUUAGUGGUUUAGAUUCUUU | -0.541
GAAGGUCUUAAUGACAACCUUC [SHAPE_invitro_SARS-CoV-2_Motif_33] | -0.78
GAAGUCACACCUUC [SHAPE_invitro_SARS-CoV-2_Motif_534] | 0.0219
GAAGUUACAACAACUCUGGAAGAAACUAAGUUCCUCACAGAAAACUUGUUACUUU [DMSMaPseq_invitro_SARS-CoV-2_Motif_72] | -0.508
GAAUGCGUCAUCAUCUGAAGCAUUU | -0.994
GAAUGGAGAACGCAGUGGGGCGCGAUCAAAACAACGUCGGCCCCAAGGUUUACCCAAUAAUACUGCGUCUUGGUUC | 0.148
GAAUUUACACCUUUUGAUGUUGUUAGACAAUGCUCAGGUGUUACUUUC | 0.167
GACAAUGUCUUAUCUACUUUUAUUUCAGCAGCUCGGCAAGGGUUUGUUGAUUCAGAUGUAGAAACUAAAGAUGUUGUU | -0.56
GACAGCAGAUAUAGUUGUC | 0.607
GACAGUGGUUGCCUACGGGUACGCUGCUUGUC | 0.731
GACAUCACUUUCUUAAAGAAAGAUGCUCCAUAUAUAGUGGGUGAUGUU [DMSMaPseq_invitro_SARS-CoV-2_Multi_15_ComplexLevel_1] | -0.0756

Sequence | pull-down binding Z-score
GACAUGUUCCUCGGAACUUGUC | -0.926
GACAUUUUAUCUUACUAAUGAUGUUUCUUUUUUAGCACAUAUUCAGUGGAUGGUUAUGUU [DMSMaPseq_invitro_SARS-CoV-2_Motif_175] | 0.0838
GACCAGAAAUCAGCCCGAAUGGUU [IAV_invivo_PB1_2_Motif_17+IAV_invivo_PB1_2_Motif_17] | -0.477
GACCCUAAGACUAAAAAUGUUACAAAAGAAAAUGACUCUAAAGAGGGUUUUUUCACUUACAUUUGUGGGUU | -0.131
GACCCUGUGGGUU [SHAPE_invitro_SARS-CoV-2_Motif_242] | 0.817
GACGACUACUAGCGUGCCUUUGUAAGCACAAGCUGAUGAGUACGAACUUAUGUACUCAUUCGUU [SHAPE_invivo_SARS-CoV-2_Multi_65_ComplexLevel_1] | 0.114
GACUACUAGCGUGCCUUUGUAAGCACAAGCUGAUGAGUACGAACUUAUGUACUCAUUCGUUUCGGAAGAGACAGGUACGUUAAUAGUU [SHAPE_invitro_SARS-CoV-2_Multi_71_ComplexLevel_1] | 0.389
GACUCAUUCAAGGAGGAGUU [SHAPE_invivo_SARS-CoV-2_Motif_469] | 0.25
GACUCUGAGCCAGUGCUCAAAGGAGUC | -0.523
GACUUAUGAAAACUAUAGGUC | -0.388
GACUUCAGUAACUCAGGUUCUGAUGUU | -0.751
GACUUGCUUUAGCACUCAAUUUGCUUUUGCUUGUC | 0.241
GAGACAUUUAAACUGUCUU | -0.469
GAGACGGUCGGGUCCAGAUAUUCGUAUCUGUCGAGUAGAGUGUGGGCUCC [Broccoli] | 0.184
GAGAGUGUUCAGACAUUCUU [SHAPE_invivo_SARS-CoV-2_Motif_44] | 0.913
GAGCUGCCCUGUCGGUGAAGCUC [IAV_invivo_NA_6_Motif_6+IAV_invivo_NA_6_Motif_6] | 0.171
GAGGCACUUAAAAUGACCAUGGCCUC [IAV_invivo_NS1_NEP_8_Motif_6+IAV_invivo_NS1_NEP_8_Motif_6] | 0.555
GAGGCUAUGUACACACCGCAUACAGUCUUACAGGCUGUUGGGGCUUGUGUUCUUUGCAAUUC [SHAPE_invitro_SARS-CoV-2_Motif_296] | -0.256
GAGGGGUGUAUACUGCUGCCGUGAACAUGAGCAUGAAAUUGCUUGGUACACGGAACGUUCUGAAAAGAGCUAUGAAUUGCAGACACCUUUU | -0.406
GAGGUAAGUACGAUACUUACCUG [U1snRNP5ss-7] | -0.856
GAGGUAAGUAUGAUACUUACCUG [U1snRNP5ss-8] | -0.664
GAGGUGAGCAGGAUACUUACCUG [U1snRNP5ss-16] | -0.342
GAGGUGAUGCAGAUACUUACCUG [U1snRNP5ss-20] | 0.762
GAGUAUUAGGUUUGAAAACCCUUGCUACUC [SHAPE_invivo_SARS-CoV-2_Motif_136] | -0.732
GAGUCCUCAUCGGAGGACUU [IAV_invivo_NS1_NEP_8_Motif_11+IAV_invivo_NS1_NEP_8_Motif_11] | -0.347
